Here are results for eight molecules from patent US20230218776A1, “ANTI-NTB-A ANTIBODIES AND RELATED COMPOSITIONS AND METHODS” (SEAGEN INC., priority 2015, published 2023).

Usually IC50 stands for the concentration at which inhibition is half-maximal. A word on the Kd: it is the free concentration of one partner at which half of the binding sites on the other are occupied at equilibrium, for simple one-to-one binding. Read a high Kd as lower affinity.

“Also recorded” adds a separate entry of the source. Where two headings read alike, the source gives them in different places. Where a SMILES comes first, the peptide text is derived from it. [ ]: non-standard residue; d: D form. The star is where a group is joined. Dolaproine = CO[C@@H]([C@@H]1CCCN1)[C@@H](C)C(=O)O; Dil = CC[C@H](C)[C@H](NC)[C@@H](CC(=O)O)OC; X1 = C[C@@H](N*)[C@@H](O)c1ccccc1; NMeV = CN[C@H](C(=O)O)C(C)C Some results are limits rather than exact numbers.

Data set [1] concerns resting human B lymphocytes. The data set can be described thus: Cytotoxicity on resting human lymphocytes, Cell-Titer Glo, 96 hours. The conditions noted are these: for IC50: 96 hours; for ADC concentration with cytotoxic effect on resting B lymphocytes: resting human B lymphocytes, 96 hour cytotoxicity assay. The format is cell-based. As to the method:
(§1) To assess the cytotoxic effects of anti-NTB-A ADCs on resting human T and B lymphocytes, purified cells were seeded into black 96-well assay plates. Cells were then treated with anti-NTB-A ADCs starting at 10 ug/mL titrated down 5-fold for a total of 8 dilution points. For free drug treatment, cells were dosed with either MMAE starting at 1,000 nM or free PBD dimer starting at 100 nM titrated down 5-fold for a total of 8 dilution points. Plates were incubated at 37° C., 5% CO2 for 96 hours then allowed to equilibrate to room temperature. An equal volume of Cell-Titer Glo reagent was added to each well and the plate was incubated an additional 30 minutes at room temperature. Plates were then read on a Perkin Elmer Envision plate reader. Dose effect curves and IC50 values were calculated using GraphPad Prism software.

Data set [2] relates to resting human T lymphocytes. The description is as above. The format is cell-based. As for the experimental part: as §1
The subject of data set [3] is Normal human T cells. The experiment in a line: Complement-dependent cytotoxicity (CDC), Sytox Green. It counts as cell-based. The conditions noted are these: 0.02-50 μg/mL, human serum, 2 hours. As for the experimental part:
(§2) Complement-Dependent Cytotoxicity (CDC): Normal human T cells (All Cells, Alameda, Calif.) or cancer cell lines (ATCC, Manassas, Va.) were labelledlabeled with 5 μM Sytox Green (Life Technologies, Grand Island, N.Y.), then bound with serial a serial dose titrations of anti-human NTB-A h20F3 antibody or PBD dimer ADCies (0.02-50 μg/mL) in RPMI1640 media+1020% human serum (Complement Technology, Tyler, TX or Solomon Park Research Laboratories, Kirkland, Wash. Cells were incubated at 37° C., 5% CO2 for 2 hours, and fluorescence from lysed cells was measured with an Envision plate reader (Perkin Elmer, Waltham, Mass.). Data was expressed as a percentage of maximum cell lysis determined with a positive control of 1% TritonX-100-treated cells (Sigma, ST. Louis, Mo.).
(§3) Three cell types were used for analysis: normal human T cells, WIL2-S cells, and Raji cells. Expression of relevant receptors on each cell type is found in Table 7 and is indicated as number of receptor per cell.

Data set [4] concerns Normal human T cells. The experiment in a line: ADCC, flow cytometry-based assay with NK effector cells. The format is cell-based. The conditions noted are these: NK effector to target 10:1, 4 hours. As for the experimental part:
A flow cytometry-based assay was used to measure ADCC activity on normal human T cells. PKH2-labeled normal human T cell targets were bound with titrations of antibody (0.1 ng/mL-10 μg/mL) and then incubated with effector NK cells at an effector to target ratio of 10:1 for 4 hours at 37° C., 5% CO2. Viability was determined by 7-AAD incorporation as measured on the FACsCalibur flow cytometer (BD BioSciences, San Jose, Calif.).

Data set [5] deals with Normal human T cells. The data set can be described thus: ADCP with monocyte-derived macrophages. It counts as cell-based. The conditions noted are these: dilution series starting at 2 μg/mL. As for the experimental part:
(§4) To assess NTB-A mediated ADCP activity, normal T lymphocytes or tumor cells were labeled with the red fluorescent membrane dye, PKH26, then labeled with antibody or ADC in a 5-point, 10-fold dilution series starting at 2 μg/mL. Cells were then incubated for 30 minutes on ice and washed twice with PBS. Cells were mixed with monocyte-derived macrophages for one hour at 37° C. The cell mixture was then stained with Alexa Fluor 488-conjugated murine anti-CD11b to label macrophages and analyzed by flow cytometry to detect PKH26+CD11b+ double-labeled fluorescent cells. Phagocytic activity was calculated as (percent PKH26+CD11b+)/(percent CD11b+cells) multiplied by one hundred.

The subject of data set [6] is Raji cell line. The data set can be described thus: Complement-dependent cytotoxicity (CDC), Sytox Green. The format is cell-based. The conditions noted are these: 0.02-50 μg/mL, human serum, 2 hours. As for the experimental part: as §2, §3
The subject of data set [7] is WIL2-S cell line. The description is as above. The format is cell-based. The following applies: 0.02-50 μg/mL, human serum, 2 hours. As to the method:
as §2, §3

For data set [8], the system named is WIL2-S cell line. The data set can be described thus: ADCC, chromium-51 release with NK effector cells. The following applies: NK effector to target 10:1, 4 hours. The format is cell-based. As to the method:
Antibody-Dependent Cellular Cytotoxicity (ADCC) Activity Assay: ADCC cytotoxic activity was measured by chromium-51 release in which effector natural killer (NK) cells kill (lyse) target cells via binding to the antibody or ADC on the target cells. WIL2-S cells were labeled with chromium-51, bound with antibody (0.1 ng/mL-10 μg/mL), and then incubated with NK cells at an effector to target ratio of 10:1 for 4 hours at 37° C., 5% CO2. Supernatant was removed to a filter plate and chromium-51 counts were measured with a TopCount (Perkin Elmer, Waltham, Mass.). Data was expressed as a percentage of maximum specific cell lysis determined with a positive control of 1% TritonX-100-treated cells (Sigma, St. Louis, Mo.).

For data set [9], the system named is Raji cell line. The data set can be described thus: ADCP with monocyte-derived macrophages. It counts as cell-based. The following applies: dilution series starting at 2 μg/mL. As for the experimental part:
as §4

In data set [10] the test system is WIL2-S cell line. The data set can be described thus: ADCP with monocyte-derived macrophages. The conditions noted are these: dilution series starting at 2 μg/mL. The format is cell-based. As for the experimental part:
as §4

The next data set concerns cynomolgus-NTB-A. The data set can be described thus: Binding to 293-F17 cells overexpressing cynomolgus-NTB-A, flow cytometry. The conditions noted are these: 293-F17/cynomolgus-NTB-A cells; 20 μg/mL antibody. As for the experimental part: (§5) Dose titrations of the anti-human NTB-A antibodies conjugated to Alexa Fluor 647 (, h20F3_HDLD-AF647) were used to generate saturation binding curves. Antigen positive Ramos cells were plated at 1×10^5 cells per well in a 96 well V-bottom plate (Thermo Scientific, Rochester, N.Y.). Three-fold serial dilutions of 2× concentrated antibodies were prepared in FACs buffer (PBS+2% fetal bovine serum) and were added to the cells in duplicate. The antibody solutions were incubated with cells for 1 hour on ice, protected from light. The cells were washed twice with FACs buffer and analyzed on the LSRII flow cytometer (BD BioSciences, San Jose, Calif.). KD values were determined with GraphPad Prism software (La Jolla, Calif.). Anti-human NTB-A antibodies h20F3_HDLD and chimeric 20F3 were tested for binding to 293-F17 cells overexpressing cynomolgus-NTB-A. 293-F17/cynomolgus-NTB-A cells were plated at 5×10^5 cells/well in FACS buffer (PBS+2% fetal bovine serum+0.02% azide) and incubated with 20 μg/mL antibody for 30 minutes on ice. The cells were washed twice and stained with 30 μg/mL goat anti-human IgG-PE (Jackson ImmunoResearch, West Grove, Pa.) for 30 minutes, on ice and protected from light. Cells were again washed twice with FACs buffer. Stained cells were analyzed on the FACs Calibur flow cytometer (BD BioSciences, San Jose, Calif.).
cynomolgus-NTB-A, sequence (as listed by the source): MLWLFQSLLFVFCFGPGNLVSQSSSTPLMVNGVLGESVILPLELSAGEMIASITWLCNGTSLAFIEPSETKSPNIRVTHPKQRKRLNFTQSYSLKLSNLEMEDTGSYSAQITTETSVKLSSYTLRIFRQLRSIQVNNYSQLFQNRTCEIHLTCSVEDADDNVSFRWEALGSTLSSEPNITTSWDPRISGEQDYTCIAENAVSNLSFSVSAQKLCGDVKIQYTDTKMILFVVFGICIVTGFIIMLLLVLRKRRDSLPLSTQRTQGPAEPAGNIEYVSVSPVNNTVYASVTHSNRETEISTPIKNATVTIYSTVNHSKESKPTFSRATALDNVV

The target of a further data set is T1, human NTB-A (Homo sapiens, UniProt Q96DU3).
T1 construct: endogenous in cells; host or cells: Ramos cells
T1 sequence (Q96DU3 22-332): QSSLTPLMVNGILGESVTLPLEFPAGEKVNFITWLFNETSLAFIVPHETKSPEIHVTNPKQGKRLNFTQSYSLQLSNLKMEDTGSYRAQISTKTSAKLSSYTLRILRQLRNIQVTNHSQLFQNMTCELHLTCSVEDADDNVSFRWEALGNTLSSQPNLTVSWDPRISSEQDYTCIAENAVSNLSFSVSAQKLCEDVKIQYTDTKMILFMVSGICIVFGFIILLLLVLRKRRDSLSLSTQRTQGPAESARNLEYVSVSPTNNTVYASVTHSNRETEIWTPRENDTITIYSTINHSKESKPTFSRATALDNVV
The experiment in a line: Saturation binding (Kd) of AF647-labelled antibody on Ramos cells. The following applies: 1 hour on ice. As to the method:
as §5

Setting [11] is: Donor 1, B cell, NTB-A receptor # 6,811.
Setting [12] is: Donor 2, B cell, NTB-A receptor # 11,037.
[13] abbreviates: Donor 3, B cell, NTB-A receptor # 8,771.
Where [14] appears, read: Donor 4, T cell, NTB-A receptor # 5,547.
[15] abbreviates: Donor 5, T cell, NTB-A receptor # 7,979.
The mark [16] stands for this setting: Donor 6, T cell, NTB-A receptor # 5,522.

On to `CC[C@H](C)[C@@H]([C@@H](CC(=O)N1CCC[C@H]1[C@H](OC)[C@@H](C)C(=O)N[C@H](C)[C@@H](O)c1ccccc1)OC)N(C)C(=O)[C@@H](NC(=O)[C@@H](NC)C(C)C)C(C)C` [Free MMAE, monomethyl auristatin E, reference compound] (H-[NMeV]V[Dil][Dolaproine]-X1), for which the IC50 is 3 nM in data set [1] (Donor 1, B cell, NTB-A receptor # 6,811, free drug, read-out: IC50); 2 nM in [1] (Donor 2, B cell, NTB-A receptor # 11,037, free drug, read-out: IC50); 5 nM in [1] (Donor 3, B cell, NTB-A receptor # 8,771, free drug, read-out: IC50); over 1000 nM in data set [2] (Donor 4, T cell, NTB-A receptor # 5,547, free drug, read-out: IC50); over 1000 nM in [2] (Donor 5, T cell, NTB-A receptor # 7,979, free drug, read-out: IC50); over 1000 nM in [2] (Donor 6, T cell, NTB-A receptor # 5,522, free drug, read-out: IC50).

On to “Campath: anti-CD52 antibody control [reference compound]”, for which, in the data set with Normal human T cells [3], the “CDC Maximum % Specific Cell Lysis” value was 108 ± 5.2%. For the same molecule, in the data set on Normal human T cells [4], the “ADCC Maximum % Specific Cell Lysis” value was found to be 60 ± 3.5%. Besides, the “ADCP Maximum % Phagocytosis” value in the data set on Normal human T cells [5] is given as 57%.

On to “Rituximab: anti-CD20 antibody control [reference compound]”, for which the “CDC Maximum % Specific Cell Lysis” value in the data set with Raji cell line [6] is listed as 45 ± 5.7%; in the data set on WIL2-S cell line [7], 66 ± 1.4%. Moreover, the “ADCC Maximum % Specific Cell Lysis” value in the data set on WIL2-S cell line [8] was found to be 42 ± 6.0%. For the same molecule, the “ADCP Maximum % Phagocytosis” value in the data set with Raji cell line [9] came to 57%; in the data set with WIL2-S cell line [10] it was 56%.

B1: c20F3-1910(2) (conjugate)
VH: QIQLVQSGPELKKPGETVKISCKASGYTFTNYGMNWVKQAPGKDLKWMGWINTYSGEPRYADDFKGRFAFSLEKSANTAYLQINNLKNEDMATYFCARDYGRWYFDVWGTGTTVTVSS
VL: QIVLSQSPAILSASPGEKVTMTCRASSSVSHMHWYQQKPGSSPKPWIYATSNLASGVPARFSGSGSGTSYSLTISRVEAEDAATYYCQQWSSTPRTFGGGTKLEIKR
For B1, the concentration for half-maximal inhibition (IC50) is on record as 1,468 ng/mL in data set [1] (setting [11]); 1,270 ng/mL in [1] (setting [12]); 3,421 ng/mL in data set [1] (setting [13]); >10,000 ng/mL in data set [2] (setting [14]); >10,000 ng/mL in data set [2] (setting [15]); >10,000 ng/mL in data set [2] (setting [16]). Moreover, the “ADC concentration with cytotoxic effect on resting B lymphocytes” value in [1] was > 1,000 ng/mL.

B2: c20F3-vcMMAE(4): chimeric 20F3 vcMMAE auristatin ADC, drug load 4 (conjugate)
VH: B1 VH
VL: B1 VL
modifications: non-natural residues
For B2, the 50% inhibitory concentration (IC50) in [1] (setting [11]), in data set [1] (setting [12]), in [1] (setting [13]), in [2] (setting [14]), in data set [2] (setting [15]) and in data set [2] (setting [16]) was >10,000 ng/mL each time. Also, the “ADC concentration with cytotoxic effect on resting B lymphocytes” value in data set [1] is “no cytotoxic effect”.

B3: chimeric: chimeric form of the 20F3 anti-NTB-A antibody (antibody, V domains shown)
VH: B1 VH
VL: B1 VL
B3: the Cyno binding entry with cynomolgus-NTB-A is “positive”.

B4: HDLD: humanized 20F3: HD (SEQ ID NO:8) with LD (SEQ ID NO:18); preferred variant (antibody, V domains shown)
VH: QIQLVQSGSELKKPGASVKVSCKASGYTFTNYGMNWVRQAPGQDLKWMGWINTYSGEPRYADDFKGRFVFSLDKSVNTAYLQISSLKAEDTAVYYCARDYGRWYFDVWGQGTTVTVSS
VL: QIVLSQSPATLSLSPGERATMSCRASSSVSHMHWYQQKPGQAPRPWIYATSNLASGVPARFSGSGSGTDYTLTISSLEPEDFAVYYCQQWSSTPRTFGGGTKVEIKR
modifications: mature heavy chain variable region of humanized 20F3 HD; mature light chain variable region of humanized 20F3 LD
notes: preferred variant
For B4, the Kd with human NTB-A was about 2 nM. In addition, the Cyno binding result with cynomolgus-NTB-A is “retained binding; also recorded: positive”.

B5: h20F3wt: humanized 20F3 HDLD antibody with wild-type IgG1 (antibody, V domains shown)
VH: B4 VH
VL: B4 VL
For the molecule B5, the entries for the “CDC Maximum % Specific Cell Lysis” value in the data set on Normal human T cells [3], in the data set on Raji cell line [6] and with WIL2-S cell line [7] were 1.3 ± 2.8%, 2.1 ± 0.6% and 0.0 ± 0.0%, respectively. In addition, the “ADCC Maximum % Specific Cell Lysis” value amounted to 38 ± 0.8% in the data set with Normal human T cells [4] and 21 ± 0.6% with WIL2-S cell line [8].
